Reference: patent publication US9475855B2, “Human Notch3 based fusion proteins as decoy inhibitors of Notch3 signaling” (THE TRUSTEES OF COLUMBIA UNIVERSITY IN THE CITY OF NEW YORK, priority 2008, dated 2016)

Tests used:
[1] = tested on: Notch1 signaling; assay: co-culture assay of ligand-induced Notch signaling (CSL-luciferase reporter; HeLa expressing Notch1, ligand-expressing 293/Bosc cells); type: cell-based; conditions: for activation of Notch1 signaling by Notch ligands: N1ECD/Fc expression vector co-transfected with full-length Notch1 and CSL-luciferase reporter in HeLa cells, co-culture with ligand expressing cells
Protocol: Notch and Notch responsive transcriptional reporters are expressed in a “Notch-responsive” cell, HeLa. Notch ligands, Jagged-1, Delta-like 1, or Delta-like 4 are expressed in a “ligand-presenting” cell, 293. Expression is mediated by transfection of individual cell populations, cells are co-cultured, and then assayed for Notch-dependent reporter activity.
To determine ligand-induced Notch signaling, co-culture assays were performed using HeLa and 293-derived Bosc cells. Transient transfections were performed by calcium phosphate precipitation. Hela cells plated 1-day prior in 10-cm plates at 1.5×10^6 were transfected with 333 ng of pBOS Notch1, 333 ng pGA981-6, and 83 ng pLNC lacZ with either 666 ng pCMV-Fc or pHyTC-N1ECDFc (333 ng for x1, 666 ng for x2). Bosc cells plated 1-day prior in 10-cm plates at 4×10^6 were transfected with either 680 ng pHyTc-Jagged1, pHyTc-Dll1, pHyTc-Dll4, or pHyTc-x (empty vector). One day after transfection, the cells were co-cultured in triplicate (HeLa:Bosc, 1:2) on 12-well plates for 24 hours. Cells were harvested and luciferase activity was determined 2-days post-transfection using the Enhanced Luciferase assay kit (BD PharMingen), and […] activity was determined using the Galacto-Light Plus kit (PE Biosystems). All assays were performed in a Berthold dual-injection luminometer.
An in vitro co-culture system (FIG. 3) with ligands expressed on one cell and Notch receptor activation scored in another cell was used to measure transcriptional activation of the Notch pathway. […] The N1ECD/Fc expression vector was co-transfected at different ratios with full-length Notch1 and the CSL-luciferase reporter in HeLa cells, followed by co-culture with ligand expressing 293 cells. We observed that activation of Notch1 signaling by Notch ligands was reduced by N1ECD/Fc expression. […] Notch1ECD/Fc could block signaling mediated by Jagged1, Delta-like 1 or Delta-like 4.

[2] = tested on: CBF1 promoter activity; assay: VEGF-induced Notch signaling, CBF1 promoter (CSL-luciferase) reporter activity in HUVEC; type: cell-based, human; conditions: for inhibition of CBF1 promoter activity induced by Ad-VEGF: 40 MOI for each adenovirus; for VEGF-induced CBF1 promoter / CSL-luciferase reporter activity: Ad-VEGF-transduced HUVEC
Protocol: To determine VEGF-induced Notch signaling, HUVEC which were infected with adenovirus were used. HUVEC plated 1-day prior in 6 well plates at 8.0×10^5 were infected with either Ad-LacZ as control or Ad-VEGF at indicated m.o.i. in the presence or absence of Ad-N1ECD/Fc. Two days after infection, infected HUVEC were re-seeded into 24-well plate at 1.5×10^5 cell in triplicate and cultured for 24 hours, and then transfected with 12.5 ng pRL-SV40 (Promega) and 137.5 ng pGA981-6 using Effectene transfection reagent (Qiagen). Cells were harvested either 1 or 2 days post-transfection and luciferase activity was determined by using the Dual-Luciferase® Reporter Assay System (Promega).
One can measure Notch signaling function by measuring transcriptional activity of CBF1 promoter, which is activated by binding of Notch-IC to CBF1. We measured CBF1 promoter activity in HUVEC which was infected with adenovirus encoding VEGF-165 at different MOI (FIG. 6). Induction of CBF1 promoter was clearly detected in Ad-VEGF-infected HUVEC, compared to Ad-LacZ-infected cells in the MOI dependent manner. […] Thus VEGF induced Notch signaling activity.

[3] = tested on: HUVEC; assay: HUVEC proliferation (CCK-8 kit); type: cell-based, human; conditions: transduced N1ECDFc, complete medium, 4 days
Protocol: These Figures show proliferation of Ad-VEGF165-transduced HUVEC. HUVEC were transduced with Ad-VEGF165 at the indicated dosages. Ad-LacZ was also co-infected to make the same total amount of adenovirus at a MOI of 40 pfu/cell. HUVEC were suspended in SFM supplemented with 1% FBS and then plated at 1×10^4 cells/well in 24-well multi-wll plates with 0.4 ml of medium. After 4 days, cell numbers were determined using the CCK-8 kit and the results are indicated as the ratio of cell numbers determined to the number of control cells, which were transduced with Ad-GFP at a MOI of 40 pfu/cell. […] Ad-VEGF-transduced HUVEC were treated with SU5416 at the indicated dosages.
These Figures show the effect of alteration of Notch signaling on cell proliferation. The cells were transduced with the indicated adenoviruses. Ad-GFP was also co-infected to make the same total amount of adenovirus at a MOI of 60 pfu/cell. After 4 days, cell numbers were determined using the CCK-8 kit and results are indicated as the ratio of cell numbers determined to the number of control cells, which were transduced with AD-GFP at MOI of 60 pfu/cell. […] Transduced HUVEC were suspended in complete medium and then plated at 1×10^4 cells/well in 24-well multiwell plates with 0.4 ml of indicated medium (□: Ad-N1IC; ▪: Ad-N1ECDFc). […]

[4] = tested on: MMP9; assay: gelatin zymography of conditioned medium, MMP-9; type: cell-based, human; conditions: co-transduction with Ad-VEGF, fibrin gel
Protocol: (§1) FIGS. 24A-B show gelatin zymography analysis of MMP-9 and MMP-2 activity stimulated by VEGF in HUVEC. […] Transduced HUVEC were cultured on fibrin gel on the indicated day (i.e. D2, D4, D6, D8). Similar results were also obtained by using collagen gel, although induction of MMP-9 was stronger on fibrin gel than collagen gel (data not shown). […] HUVEC were transduced with Ad-N1ECDFc at the indicated doses and condition medium was collected from HUVEC cultured on collagen gel at day 4. FIGS. 24C-D show up-regulation of MMP-9 and MT1-MMP with Notch signaling. HUVEC were transduced with either Ad-LacZ or Ad-N1IC at 40 MOI. Numbers show PCR cycles. […] HUVEC were transduced with Ad-VEGF in the absence or presence of co-transduction of Ad-N1ECDFc at 40 MOI each. Ad-LacZ was co-transduced to make the same total amount of adenovirus at 80 MOI.
(§2) Requisition of MMPs for angiogenic sprouting has been established by synthetic MMP inhibitors (16). GM6001 is one broad inhibitor against MMPs including MMP2, MMP9 and MT1-MMP (18).

[5] = tested on: MMP2; assay: gelatin zymography of conditioned medium, MMP-2; type: cell-based, human; conditions: co-transduction with Ad-VEGF, collagen gel, day 4
Protocol: as §1, §2

[6] = tested on: MMP9; assay: RT-PCR analysis of MMP9 expression in HUVEC; type: cell-based, human
Protocol: as §1, §2

[7] = tested on: MT1-MMP; assay: RT-PCR analysis of MT1-MMP expression in HUVEC; type: cell-based, human
Protocol: as §1, §2

[8] = Ad-N1ECDFc infection alone, Ad-LacZ infected HUVEC (data not shown)
[9] = Ad-VEGF-HUVEC, co-transduction at 40 MOI each

B1: N1ECDFc: Notch-based fusion protein or decoy: Notch1 extracellular domain EGF repeats fused to Fc; expressed from plasmid or adenovirus (Ad-N1ECDFc) (protein)
chain: ARGLRCSQPSGTCLNGGRCEVANGTEACVCSGAFVGQRCQDPSPCLSTPCKNAGTCYVVDHGGIVDYACSCPLGFSGPLCLTPLANACLANPCRNGGTCDLLTLTEYKCRCPPGWSGKSCQQADPCASNPCANGGQCLPFESSYICGCPPGFHGPTCRQDVNECSQNPGLCRHGGTCHNEIGSYRCACRATHTGPHCELPYVPCSPSPCQNGGTCRPTGDTTHECACLPGFAGQNCEENVDDCPGNNCKNGGACVDGVNTYNCRCPPEWTGQYCTEDVDECQLMPNACQNAGTCHNSHGGYNCVCVNGWTGEDCSDNIDDCASAACFQGATCHDRVASFYCECPHGRTGLLCHLNDACISNPCNEGSNCDTNPVNGKAICTCPRGYTGPACSQDVDECALGANPCEHAGKCLNTLGSFECQCLQGYTGPRCEIDVNECISNPCQNDATCLDQIGEFQCICMPGYEGVYCEINTDECASSPCLHNGRCVDKINEFLCQCPKGFSGHLCQYDVDECASTPCKNGAKCLDGPNTYTCVCTEGYTGTHCEVDIDECDPDPCHIGLCKDGVATFTCLCQPGYTGHHCETNINECHSQPCRHGGTCQDRDNYYLCLCLKGTTGPNCEINLDDCASNPCDSGTCLDKIDGYECACEPGYTGSMCNVNIDECAGSPCHNGGTCEDGIAGFTCRCPEGYHDPTCLSEVNECNSNPCIHGACRDGLNGYKCDCAPGWSGTNCDINNNECESNPCVNGGTCKDMTSGYVCTCREGFSGPNCQTNINECASNPCLNQGTCIDDVAGYKCNCPLPYTGATCEVVLAPCATSPCKNSGVCKESEDYESFSCVCPTGWQGQTCEIDINECVKSPCRHGASCQNTNGSYRCLCQAGYTGRNCESDIDDCRPNPCHNGGSCTDGVNAAFCDCLPGFQGAFCEEDINECATNPCQNGANCTDCVDSYTCTCPTGFNGIHCENNTPDCTESSCFNGGTCVDGINSFTCLCPPGFTGSYCQYDVNECDSRPCLHGGTCQDSYGTYKCTCPQGYTGLNCQNLVRWCDSAPCKNGGKCWQTNTQYHCECRSGWTGFNCDVLSVSCEVAAQKRGIDVTLLCQHGGLCVDEEDKHYCHCQAGYTGSYCEDEVDECSPNPCQNGATCTDYLGGFSCKCVAGYHGSNCSEEINECLSQPCQNGGTCIDLTNTYKCSCPRGTQGVHCEINVDDCHPPLDPASRSPKCFNNGTCVDQVGGYTCTCPPGFVGERCEGDVNECLSNPCDPRGTQNCVQRVNDFHCECRAGHTGRRCESVINGCRGKPCRNGGVCAVASNTARGFICRCPARFEGATCENDARTCGSLRCLNGGTCISGPRSPTCLCLGSFTGPECQFPASSPCVGSNPCYNQGTCEPTSESPFYRCLCPAKFNGLLCHILDYSFTDLGPG
modifications: left off: a dimerising Fc or GST
concentration-dependency of inhibiting signaling ([1]; 2:1 ratio of N1ECD/Fc to Notch1 compared with 1:1 ratio): more effective
activation of Notch1 signaling by Notch ligands [1]: inhibition
activation of Notch1 signaling by Notch ligands ([1]; listed as N1ECD/Fc): reduced
signaling mediated by Delta-like 1 ([1]; co-culture with Delta-like 1 expressing cells): block
signaling mediated by Delta-like 4 ([1]; co-culture with Delta-like 4 expressing cells): block
signaling mediated by Jagged1 ([1]; co-culture with Jagged1 expressing cells): block
inhibition of CBF1 promoter activity induced by Ad-VEGF ([2]; 24 hr after reporter gene transfection): 60%
inhibition of CBF1 promoter activity induced by Ad-VEGF ([2]; 48 hr after reporter gene transfection): 90%
VEGF-induced CBF1 promoter / CSL-luciferase reporter activity [2]: clearly decreased
VEGF-induced CBF1 promoter / CSL-luciferase reporter activity ([2]; listed as Notch fusion protein): clearly reduced
proliferation of HUVEC [3]: did not clearly alter
induction and activation of MMP9 [4]: inhibition
activation of MMP2 [5]: inhibition
expression of MMP9 [6, 8]: did not affect
VEGF-induced up-regulation of MMP9 mRNA [6, 9]: inhibited
expression of MT1-MMP [7, 8]: did not affect
VEGF-induced up-regulation of MT1-MMP mRNA [7, 9]: inhibited
